Source: the supplement of paper PMC9170038

System: K4 kissing-loop RNA reporter
Experiment: apparent KD of K4 kissing-loop reporter; higher = weaker reporter binding
Details: Eterna round: R107
Experimental: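 RNA-MaP round R107: designed RNA switches with theophylline, tryptophan, arginine or FMN aptamers are transcribed on-chip within common flanks. They are titrated with a labelled K4 kissing-loop RNA reporter in RNA-MaP buffer (100 mM Tris pH 7.5, 80 mM KCl, 4 mM MgCl2), without ligand or with the indicated ligand. Median apparent KD per design.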

[1] = input ligand: theophylline 20 uM
[2] = input ligand: tryptophan 2.4 mM
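Further: bound reporter read as fluorescence of individual clusters on recovered sequencing chips by microscopy, with normalized cluster intensities fitted with a binding model.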

Sequence | apparent KD of K4 kissing-loop reporter (input ligand: FMN 200 uM) [nM] | apparent KD of K4 kissing-loop reporter (input ligand: arginine 13.2 mM) [nM] | apparent KD of K4 kissing-loop reporter (input ligand: none) [nM] | apparent KD of K4 kissing-loop reporter [1] [nM] | apparent KD of K4 kissing-loop reporter [2] [nM]
UAUGGUCCAUCAAGAGUAGUGAUGUUAUAACGAGGACCGGUACGGCCGCCACUCGAGGCCGUAAUACUCGAUCGGAUGCUGAGUG [theeternabot_exclusion_KL_Trp_A_28] | 815 | 819 | 1180 | 794 | 816
UGGCGAGUGAUGUUCGUUGUUGUAGUGUGUCGAGGACCGGUACGGCCGCCACUCGGGUUGGUUGUUGUUGUUGUUGUUGUUGUUG [First Shot] | 218 | 187 | 196 | 292 | 101
GUCUCAAAAGAGGCAAGCACUCACGAGGACAAGGAUAUCAUAUCAAUGAGAAGGUGUCCUCGUCCUCAGUGAUGUUGAGGAGUGC [Omei KL FMN A SS E v4] | 410 | 200 | 247 | 233 | 257
GUAUCGCUAGGAGGAUAUUUCAAUUCGCCUAUAAUAGGUGAUACGGAGUGAUGUUCCGAUUUACGGAAAGAAGGCCUAGUGAUAC [FMN B 10] | 144 | 229 | 244 | 239 | 237
GUCUCCGUCGAUGAUACCAGUCGAUGUACGUCAGGUACCCUUUGAGUGAUGUUCAGAUUAGACCCUUGGCAGCAUAUCGAGGCUC [theeternabot_exclusion_KL_Theo_B_24] | 370 | 452 | 514 | 444 | 303
CCGCCGGUCGGAAGGAGCGCACGCCAGAGUGAUGUUCUGGCGCGGGCAUUUUGUGCCCGCGUGCAGGUAGGUCGCCGAUUCUGGC [Quxeorti] | 602 | 414 | 427 | 452 | 498
UGAUACCAGACUGAUACCAGCAAGUGAUGUUUGUUGAUCUAAAGCAGUCAAAGACUGCCUUGCCCUUGGCAGCAGUCUGGUAUCU [TheoBX 27 #SwitchBubble #StaticStem] | 886 | 569 | 832 | 354 | 901
GAGUUUCGUAAAGGAUAUUCUAGCUAAAGCCAUUAGUGAUGUUGAUGUACGGACGGAAGCCUGGCAGAAGAAGGUUAACAGGAUU [theeternabot_sameState_KL_FMN_B_24] | 708 | 326 | 410 | 420 | 312
AAAAUAAUCCAGUGAUGUUGGUUUCCAGAUACCAGCGACGAAAGUCGCCCUUGGCAGCUGUGGACGUACAAAAUAAGUACGUCCU | 318 | 362 | 359 | 276 | 300
CGCAGUGAUGUUGCGAGUAGCUACAGGGAAGGAGCGCGCUAGUGCGCAGGUAGGUCGCCCACGCAGUGAUGUUGCGUCAUAGGGU [Exclusion Arg A GF8] | 139 | 114 | 114 | 137 | 109
UGGAUAUAGUGAUGUUAUAUAGAGAUGGAUACCAGUUAAGAGAAUAGCCCUUGGCAGCCGAAAGAAGUAUCAUUAGAGAAGAAUG [ExTheophyl.Ad] | 261 | 183 | 239 | 194 | 195
UUAAUAAUUCAAGGAUAUGUUUUCUAUUUCGAGUGAUGUUCGGAAUUAAUAAAUUUAAAAGAUUAUACAGAAGGUGAUAGAUAGU [Cynwulf-mod#3] | 89.5 | 82.5 | 90.9 | 88.1 | 75.9
AACUCUCAGACAUUUGAGUGAUGUUCAGGCCGAGGACCGGUACGGCCGCCACUCGGGUCUGAGAGAGGUUAUCAAAGAUAGCCAA [Omei KL Tryp A SS A v6] | 467 | 179 | 234 | 214 | 385
CGAGUGAUGUUCGUUCGUUUAUUUCGUUGACAGGAUAUGCGGAAACGCAGAAGGGUCACCUUUGAGUUAACGGAAUUUACGUUAU [Ex FMN A 27] | 614 | 487 | 587 | 552 | 546
GGAAGGAAGGGAAGGAGCGCGCAGGCAGUGAUGUUGCCAAACAAAACAAACAAAACAAAAGCGCAGGUAGGUCGCCCGAAGGACG | 67.8 | 92.8 | 89.7 | 126 | 62.9
GUCAGACCGGGACUCCAGUGAUGUUGGAGGCAGGAUAUCCAGUCGAGGAGAAGGGCCAGGGAUAUCGAGCUGCUCGGUUUGUAGU [Xexezaes] | 72.4 | 108 | 77.3 | 102 | 67.4
UGACUGGACUGAAGGAGCGAGGACGGUCAUAGACCGAAAUCAGUGAUGUUGAAAGAUAAACCUCAGGUAGGUCGCAGUCUAGUCU [ArgBS 1 #SwitchBubble #StaticStem] | 1070 | 918 | 790 | 546 | 1230
AGAGUUGACGAAAAGUCAACUCUACGAGAAGGAGCGCACGAAAGUGCAGGUAGGUCGCUCAGUCCAGUGAUGUUGGAACAUAAAA [#OpenEnded 8] | 59.7 | 101 | 68.8 | 84.1 | 59.2
ACGCUGUGAAUAACACAGCGAAUAAAUUCGCGAGGACCGGUACGGCCGCCACUCGCUAACUGCGAGUGAUGUUCGAUAAUAAAAU [Mat - Mod of OpenEnded 3 - D13] | 176 | 80.8 | 172 | 201 | 91.1
UGACUACAUCCUAGUGAUGUUUAGGAUAUGUAGGAUAUGCUGAUAAGCAGAAGGACAGAAGGAAGUGAUGUUCUUAAAGUAGUCU [FmnAX 29 #DoubleAptamer #Double K4 #SwitchBubble #StaticStem] | 644 | 783 | 1050 | 760 | 802
UUAUUAAUAACAGAUACCAGUCCAGAAUGAAUACUAUAGUGAUGUUAUAAUAAAGGGAAGGACCCUUGGCAGCUGUAAUAUAUUU [AstrosSSTheB#1] | 431 | 381 | 501 | 338 | 368
AAAAUAAUCCAGUGAUGUUGGUAUGCAGAUACCAGCGACGAAAGUCGCCCUUGGCAGCUGUGGACGUACAAAAUAAGUACGUCCU | 923 | 491 | 933 | 979 | 855

Sequence | apparent KD of K4 kissing-loop reporter (input ligand: FMN 200 uM) [nM] | apparent KD of K4 kissing-loop reporter (input ligand: arginine 13.2 mM) [nM] | apparent KD of K4 kissing-loop reporter (input ligand: none) [nM] | apparent KD of K4 kissing-loop reporter [1] [nM] | apparent KD of K4 kissing-loop reporter [2] [nM]
GGGCAUCUGGCUGAUACCAGUGAUAAAGGGUAAGAGACAGGGAGUGAUGUUCCCUUUAGCCACCCUUGGCAGCAGUUUAAGUUUG [Exclusion Theophylline B GF 17] | 83.5 | 83.3 | 94.7 | 85.4 | 76.4
GAAGUACAGGCGGCCGCCACUAGUGAUGUUAGUGAUAAAAGAUAUAGUAAAUAUCGGCAUGUAGAUAGGACCGGGCCUGAUGGAG [ggbgmullin] | 311 | 220 | 256 | 236 | 226
CGCGCGCGUUUGAGAGGGCGCGCGCGAAGUGAGGAUAUUUAGGGAGAAAGAAGGCACUAUAAAAUAUAGUGAUGUUAUAUAAGGG [SSFMNA.F] | 603 | 111 | 288 | 469 | 186
ACCUACGAUCACAAAAGUGAUUGUAGGAUCUAGGAUAUGCUGAAGAGCAGAAGGAGAGUGAUGUUCUCAACUCACGAAAGUGAGA [whbob_Ex_FMNA__2th188] | 382 | 222 | 198 | 258 | 175
AGGGUUUAACACGAUACCAGCCUGGAGGCCAGUGAUGUUGGCCGAUUUGAACAGAAUUAAGGCCCUUGGCAGCGUCUUUAAAACC [Biarat] | 143 | 152 | 167 | 165 | 153
AUGGUUGUCGUAGGAUAUGUAGGAUAUUCCUAUAGCAGUGAUGUUGCUAAUAUCUUGGAAAGAAGGACAGAAGGACGAUAACCAC [KL-SSFMN-B2 #analogue] | 114 | 112 | 119 | 108 | 111
UGUUUUUUUUUGAUGUUUGUUGUAAAAUGGCAGGAUAUCGUAGAGGCGAGAAGGGCUUUUAUGCGUUAUGAGUGAUGUUUGUAGG [vevvmullin] | 418 | 252 | 381 | 269 | 284
UUUCGUCUCUGAGGAUAUCAGAAUAGAGUGAUGUUCUAUCAAAGCCCAGUGAUGUUGGAUGCUAUCUGAGAAGGCAGUGGGCGAG [Same State FMN B GF 11] | 196 | 183 | 249 | 185 | 219
AUUUAAUGUAUAGAUUAUAUACAUAAUUCAGAGGAUAUGCAUAGAAGCAGAAGGCUGGUUGCAGUGAUGUUGCUUUUUUAAUUUA [JR_SSFMNA_Sub008] | 30.9 | 125 | 76.7 | 185 | 63.8
UGAUACCAGACGGCCGCCACUCCCGUAAGUCAAAGACUUACCAAGAGAAUCGUCCAGUGAUGUUGGAGGACCGGGUCUGGUAUCU [FiskerMod 8 - Jieux - Exclusion - Tryptophan B] | 922 | 845 | 998 | 732 | 682
AGAUCUAAGCUGAGUUAGUCACCAUAAAGCAAGGAUAUUCCACGAAGAAGAAGGUGCAUCAUCCAUAGUGAUGUUAUGGCACGGG [theeternabot_sameState_KL_FMN_A_7] | 687 | 548 | 807 | 672 | 574
AAUCGCAGUGAUGUUGCGAUUCCGUUGAGGGAGGAUAUUGGUAAUACAAGAAGGUUCGGUUACGGGAGAUGUUAGUAAUAGGGCC [Exclusion FMN A GF21] | 46.2 | 41.3 | 61.8 |  | 85.2
AAAAUAAUCCAGUGAUGUUGGUAUCCAGAUACCAGCCAGGAAACUGGCCCUUGGCAGCUGUGGACGUACAAAAUAAGUACGUCCU [#OpenEnded 10 #StaticStem #K4Early] | 481 | 268 | 464 | 611 | 355
CGAAAUAGAACGGCCGCCACUGUAAGUCCUGACAGUAAGUGAUGUUUGAAAGAUUCGGGUAUUCGCAGGACCGGGUUCGUCAUAA [theeternabot_sameState_KL_Trp_B_13] | 886 | 844 | 1260 | 759 | 754
UGUACCGAGGCAGGAUAUGUCGUCGAAAGACGAAAUGGAGUGAUGUUCCUUAAACUGCGAAAGCAGACAGAAGGGUCUUGGUACU [FmnBS 29 G10+U76] | 132 | 178 | 181 | 167 | 171
GCGGGCGGCUGAAGGAGCGGGCGGGCCCGAGUGAUGUUCGGGUGGGCUGUGAGGCCCGGAGCCCAGGUAGGUCGCGGUUCCGCCC [#2 Same State - Arginine B Attempt #26 (HarryS)] | 157 | 107 | 167 | 146 | 133
AGAACUGUCUUGGAUACCAGUGAUGUUGGUAUCGAUGUGUGAGUGCAAAGCGUCCCACAUUGCCCUUGGCAGCUAAGACUGUUCA [Omei KL Theo B Exc A v3] | 158 | 134 | 148 | 179 | 144
GGAUAGGAUAGAGGAUAUGGGUUAGGCAAGAAUAACUUGUCUUGUAAAUCCAUGAGGAGUGAUGUUCCAGAAGGCUGUCCUAUCG [MatMod 5 - Jieux - Exclusion - FMN B] | 301 | 113 | 112 | 114 | 93.6
AUUUUUUUGUCAGGAUAUUAGUAUGCGUUUGGUUUGUUAGUGAUGUUGAUAUUUUGUUUAUGUAUUUAAGAAGGGAUUUAGCGGU [yyitemullin] | 497 | 348 | 511 | 497 | 359
UUGUUUGGUUGAGAGGUUGGGCGAGAUGAUACCAGUAGAGAAGAGUACCCUUGGCAGCAUAAGAAAGAUAUAGUGAUGUUGUAUA [SSTheophA.P] | 422 | 362 | 546 | 566 | 396
UUUCGUAGAAGUGAUACCAGACUGGAAAGUGAUGUUUUCCAAUUAUUUAAAUCCUUAUCUGUCCCUUGGCAGCACAGUUUAUUUA [JR_Nu_ExcTheophyB_Sub027] | 71.8 | 81.3 | 75.5 | 97.6 | 70
